This data set concerns the molecule itself. The data set can be described thus: solid-state NMR of amyloid fibrils.

B1: Syrian hamster PrP23-144 (domain or fragment)
chain: KKRPKPGGWNTGGSRYPGQGSPGGNRYPPQGGGTWGQPHGGGWGQPHGGGWGQPHGGGWGQPHGGGWGQGGGTHNQWNKPSKPKTNMKHMAGAAAAGAVVGGLGGYMLGSAMSRPMMHFGND
With B1, the binding result was “binds”.

The values above are taken from article PMC5622040 (Nature Communications, 2017).
